Data published in US10532083B2, “Methods for inducing differentiation or conversion of white adipocytes and/or preadipocytes to brown adipocites using FGF8” (Technische Universität München, priority 2014, dated 2020).

Experiments:
[1] = test system: visceral, epididymal white adipocytes; assay: Ucp1 / brown adipocyte marker mRNA (qPCR) in immortalized epididymal white adipocytes treated with FGFs; type: cell-based, murine; settings: epididymal adipocytes; six days of differentiation; FGF8a, b, e, f 25.0 ng/ml, FGF17 10.0 ng/ml
Description: (§1) Screening paracrine FGFs for a browning potential. A, B—Screening of all paracrine FGFs in immortalized white adipocytes. Subcutaneous, inguinal and visceral, epididymal white adipocytes were grown to confluence in Dulbecco's modified Eagle's medium with 4.5 g/l glucose, supplemented with 20 nmol/l insulin, 1 nmol/l triiodothyronine, 20% fetal bovine serum, and penicillin/streptomycin. Upon reaching confluence, differentiation was induced with 500 mmol/l isobutylmethylxanthine, 250 mmol/l indomethacine, and 2 mg/ml dexamethasone for 24 hours. Subsequently, members of the paracrine FGF protein family were added to the medium for the following six days. The medium and the FGF indicated were changed every 48 hours. Untreated cells served as a negative control. At the end of the differentiation process total RNA was isolated using TRIzol reagents, RNA quality and concentration was measured by photometric analysis, and 5 μg of total RNA was reverse-transcribed to cDNA. Finally, quantitative analysis of UCP-1 mRNA expression was performed. A bar graph analysis including the SEM of 3 to 6 independent experiments is shown. […] B—Four different splicing forms of the Fgf8 gene were compared by quantifying Ucp1 mRNA expression in fully differentiated white adipocytes. UCP-1 mRNA abundance is shown in percent of the FGF8b value. Fgf8b and Fgf8f were able to increase expression in epididymal adipocytes. C—Illustration depicting the different exon usage that characterizes the FGF8 spliceforms a, b, e, and f.
(§2) Dose dependency of Ffg8b action. A, B—Subcutaneous, inguinal and visceral, epididymal white adipocytes were grown to confluence in Dulbecco's modified Eagle's medium with 4.5 g/l glucose, supplemented with 20 nmol/l insulin, 1 nmol/l triiodothyronine, 20% fetal bovine serum, and penicillin/streptomycin. Upon reaching confluence, differentiation was induced with 500 mmol/l isobutylmethylxanthine, 250 mmol/l indomethacine, and 2 mg/ml dexamethasone for 24 hours. Subsequently, FGF8b in five indicated concentrations were added to the medium for the following six days. The medium and the FGF8b were changed every 48 hours. Untreated cells served as a negative control. At the end of the differentiation process total RNA was isolated using TRIzol reagents, RNA quality and concentration was measured by photometric analysis, and 5 μg of total RNA was reverse-transcribed to cDNA. Finally, quantitative analysis of UCP-1 mRNA expression was performed. FGF8b induces Ucp1 mRNA abundance in inguinal and epididymal adipocytes. Epididymal fat cells were more dose dependently responsive to Fgf8b treatment as compared to inguinal cells. The latter were responsive to FGF8b treatment above the threshold indicated. B—The absolute increase of several genes typical for brown fat cells.
(§3) Treatment timecourse experiment. A, B—Subcutaneous, inguinal and visceral, epididymal white adipocytes were grown to confluence (prolif. denotes proliferation period) in Dulbecco's modified Eagle's medium with 4.5 g/l glucose, supplemented with 20 nmol/l insulin, 1 nmol/l triiodothyronine, 20% fetal bovine serum, and penicillin/streptomycin. Upon reaching confluence, differentiation was induced with 500 mmol/l isobutylmethylxanthine, 250 mmol/l indomethacine, and 2 mg/ml dexamethasone for 24 hours (induction). Subsequently, the cells were cultured for another six days (differentiation). At the end of the differentiation process total RNA was isolated using TRIzol reagents, RNA quality and concentration was measured by photometric analysis, and 5 μg of total RNA was reverse-transcribed to cDNA. Finally, quantitative analysis of UCP-1 mRNA expression was performed. Untreated cells served as a negative control. A bar graph analysis including the SEM of 5 independent experiments is shown. A—Epididymal fat cells were treated with FGF8b during different time windows as given by black squares indicating one day of treatment each. […]

[2] = test system: subcutaneous, inguinal white adipocytes; assay: Ucp1 / brown adipocyte marker mRNA (qPCR) in immortalized inguinal white adipocytes treated with FGFs; type: cell-based, murine; settings: inguinal adipocytes; six days of differentiation; FGF8a, b, e, f 25.0 ng/ml, FGF17 10.0 ng/ml
Description: as §1, §2, §3

[3] = test system: subcutaneous white adipose tissue; settings: cited from earlier work

Molecule | Induction of Ucp1 mRNA expression (browning potential), screening of paracrine FGFs and FGF8 spliceforms [1] | Induction of Ucp1 mRNA expression (browning potential), screening of paracrine FGFs and FGF8 spliceforms [2] | Appearance of brown-like adipocytes [3]
FGF17: human recombinant fibroblast growth factor 17 (PeproTech), FGF8 subfamily; SEQ ID NO:23 (protein, human FGF17) MGAARLLPNLTLCLQLLILCCQTQGENHPSPNFNQYVRDQGAMTDQLSRRQIREYQLYSRTSGKHVQVTGRRISATAEDGNKFAKLIVETDTFGSRVRIKGAESEKYICMNKRGKLIGKPSGKSKDCVFTEIVLENNYTAFQNARHEGWFMAFTRQGRPRQASRSRQNQREAHFIKRLYQGQLPFPNHAEKQKQFEFVGSAPTRRTKRTRRPQPLT | increased expression of Ucp1 mRNA expression | strongly induce Ucp1 mRNA expression | –
FGF8e: human recombinant FGF8 spliceform e (R&D Systems); SEQ ID NO:17 (protein, human FGF8e) MGSPRSALSCLLLHLLVLCLQAQEGPGRGPALGRELASLFRAGREPQGVSQQHVREQSLVTDQLSRRLIRTYQLYSRTSGKHVQVLANKRINAMAEDGDPFAKLIVETDTFGSRVRVRGAETGLYICMNKKGKLIAKSNGKGKDCVFTEIVLENNYTALQNAKYEGWYMAFTRKGRPRKGSKTRQHQREVHFMKRLPRGHHTTEQSLRFEFLNYPPFTRSLRGSQRTWAPEPR | did not induce Ucp1 mRNA expression | did not induce Ucp1 mRNA expression | –
FGF21: endocrine fibroblast growth factor 21, prior-art browning factor (Fisher et al. 2012) (protein, UniProt Q9NSA1 29-209, looked up) Fibroblast growth factor 21: HPIPDSSPLLQFGGQVRQRYLYTDDAQQTEAHLEIREDGTVGGAADQSPESLLQLKALKPGVIQILGVKTSRFLCQRPDGALYGSLHFDPEACSFRELLLEDGYNVYQSEAHGLPLHLPGNKSPHRDPAPRGPARFLPLPGLPPALPEPPGILAPQPPDVGSSDPLSMVGPSQGRSPSYAS | – | – | increases the appearance of brown-like adipocytes
FGF8a: human recombinant FGF8 spliceform a (R&D Systems); SEQ ID NO:15 (protein, human FGF8a) MGSPRSALSCLLLHLLVLCLQAQHVREQSLVTDQLSRRLIRTYQLYSRTSGKHVQVLANKRINAMAEDGDPFAKLIVETDTFGSRVRVRGAETGLYICMNKKGKLIAKSNGKGKDCVFTEIVLENNYTALQNAKYEGWYMAFTRKGRPRKGSKTRQHQREVHFMKRLPRGHHTTEQSLRFEFLNYPPFTRSLRGSQRTWAPEPR | did not induce Ucp1 mRNA expression | did not induce Ucp1 mRNA expression | –
FGF8f: human recombinant FGF8 spliceform f (R&D Systems); SEQ ID NO:18 (protein, human FGF8f) MGSPRSALSCLLLHLLVLCLQAQEGPGRGPALGRELASLFRAGREPQGVSQQVTVQSSPNFTQHVREQSLVTDQLSRRLIRTYQLYSRTSGKHVQVLANKRINAMAEDGDPFAKLIVETDTFGSRVRVRGAETGLYICMNKKGKLIAKSNGKGKDCVFTEIVLENNYTALQNAKYEGWYMAFTRKGRPRKGSKTRQHQREVHFMKRLPRGHHTTEQSLRFEFLNYPPFTRSLRGSQRTWAPEPR | effective | only effective in inducing Ucp1 expression in adipocytes of epididymal adipocytes | –
